According to paper PMC13036491, “RNA binding protein Musashi1 interacts with the viral genomic RNA and restricts SARS-CoV-2 infection by repressing translation”:

Target: GST-Msi1 (Homo sapiens, UniProt O43347 1-362)
Experiment: EMSA
Conditions: protein: recombinant; tags: N-terminal GST (pGEX 5X-2); label: fluorescein-12-UTP

Chain of GST-Msi1 (O43347 whole entry): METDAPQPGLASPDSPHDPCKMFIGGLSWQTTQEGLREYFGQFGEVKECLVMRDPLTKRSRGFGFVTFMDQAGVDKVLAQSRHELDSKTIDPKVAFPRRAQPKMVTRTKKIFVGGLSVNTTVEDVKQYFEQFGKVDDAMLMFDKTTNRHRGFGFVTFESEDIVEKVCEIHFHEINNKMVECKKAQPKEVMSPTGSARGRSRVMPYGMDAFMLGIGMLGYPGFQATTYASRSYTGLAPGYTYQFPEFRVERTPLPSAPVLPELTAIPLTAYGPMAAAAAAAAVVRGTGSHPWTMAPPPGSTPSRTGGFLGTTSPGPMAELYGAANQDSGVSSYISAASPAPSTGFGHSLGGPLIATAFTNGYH

| Binder | binding result |
| --- | --- |
| GGGAUUUUAGCCGUGCUAUCCCCA (ssRNA) [M2 mutant RNA] | no binding |
| GGGUAGCACAAGCCGAUGCCGUUAA (ssRNA) [M1 mutant RNA] | no binding |
